One may read the Kd as the concentration at which binding is half-saturated.

The target of test [1] is Botulinum neurotoxin serotype A (BoNT/A) holotoxin (Clostridium botulinum serotype A, …, UniProt P0DPI1). The test can be described thus: SPR; Biacore; […] (50 ug/mL) […], in HBS-EP ([…]; 120 s flow, 600 s dissociation; […]. Particulars: both partners purified.
For test [2], the target named is recombinant C-terminal domain of the BoNT/A heavy chain (heavy chain receptor domain, HCR) (Clostridium botulinum serotype A, …, UniProt P0DPI1). The description is as above. Particulars: both partners purified.

B1: HZ45 humanized monoclonal antibody (antibody, V domains shown)
VH: EVQLVQSGAEVKKPGASVKVSCKASGYTFTDYYINWVRQATGQGLEWLGESYPGSGTAFYNEKFKGKATLTADKSKNTAYMELSSLRSEDTAVYFCARSDGSPFAYWGQGTLVTVSS
VL: DIQMTQSPSSLSASVGDRVTITCKASDYINNWLAWYQQKPGKAPKLLISGAISLETGVPSRFSGSGSGTDYTLTISSLQPEDFATYYCQQYWSPPLTFGQGTKVEIK
notes: also called HZ45 mAb; HZ45 antibody; source: CHO-K1, transfected, purified from culture medium (ammonium sulfate, HIC-Phenyl)
B1: the Kd in test [1] was 0.551 nM; in test [2], 0.0423 nM.

For the origin of these results see article PMC11946523 (Toxins, 2025).
